The source of these data is doi:10.1101/2024.09.27.615443 (bioRxiv, 2024).

This test concerns the target recombinant TGF-β1/GARP (Homo sapiens, UniProt P01137;Q14392). As to the kind of experiment: ELISA.

Chain of recombinant TGF-β1/GARP (P01137 30-390, chain 1 of 2): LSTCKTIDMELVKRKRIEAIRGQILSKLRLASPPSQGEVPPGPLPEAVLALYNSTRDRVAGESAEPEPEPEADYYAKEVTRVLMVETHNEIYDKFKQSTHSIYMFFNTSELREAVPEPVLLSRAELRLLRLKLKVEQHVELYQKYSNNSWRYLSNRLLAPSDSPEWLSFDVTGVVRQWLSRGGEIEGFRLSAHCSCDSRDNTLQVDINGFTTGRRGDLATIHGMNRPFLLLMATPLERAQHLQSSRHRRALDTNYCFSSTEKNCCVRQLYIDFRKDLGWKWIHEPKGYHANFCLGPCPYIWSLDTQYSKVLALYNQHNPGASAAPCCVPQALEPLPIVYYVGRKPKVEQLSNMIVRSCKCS
Chain of recombinant TGF-β1/GARP (Q14392 20-662, chain 2 of 2): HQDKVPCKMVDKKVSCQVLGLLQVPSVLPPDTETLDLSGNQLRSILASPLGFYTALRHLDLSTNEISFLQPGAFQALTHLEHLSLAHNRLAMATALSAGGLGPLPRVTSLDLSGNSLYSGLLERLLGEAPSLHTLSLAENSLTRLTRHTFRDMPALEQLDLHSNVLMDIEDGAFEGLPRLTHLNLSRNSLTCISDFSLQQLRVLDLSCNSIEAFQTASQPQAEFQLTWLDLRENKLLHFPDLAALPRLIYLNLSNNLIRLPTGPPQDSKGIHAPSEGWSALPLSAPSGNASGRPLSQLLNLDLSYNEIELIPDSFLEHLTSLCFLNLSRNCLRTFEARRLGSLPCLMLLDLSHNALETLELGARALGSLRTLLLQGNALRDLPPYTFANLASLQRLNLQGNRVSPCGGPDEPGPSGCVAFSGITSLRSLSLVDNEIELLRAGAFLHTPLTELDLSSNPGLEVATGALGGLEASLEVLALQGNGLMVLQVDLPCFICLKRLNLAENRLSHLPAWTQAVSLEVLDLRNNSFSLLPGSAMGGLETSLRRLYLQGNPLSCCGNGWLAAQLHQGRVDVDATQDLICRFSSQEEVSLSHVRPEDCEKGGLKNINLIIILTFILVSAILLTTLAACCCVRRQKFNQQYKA

B1: monoclonal antibody clone 28G11 (antibody, V domains shown)
VH: EVKLVESGGGLVQPGGSLSLSCAASGFTFTDYYMSWVRQPPGKALEWLGFIRNKPNGYTTEYSASVKGRFTISRDNSQSILYLQMNVLRAEDSATYYCARYTGGGYFDYWGQGTTLTVSS
VL: DIQMTQTTSSLSASLGDRLTISCRASQDISNYLNWYQQKPDGTVKLLIYYTSRLHSGVPSRFSGSGSGTDYSLTISNLEQADIATYFCQQGDTLPWTFGGGTKLEIK
With B1, the binding result is on record as “binds”.
